How the values were obtained:
[1] = biological target: TAZ1 (transcriptional adaptor zinc-binding 1) domain of CREB binding protein (CBP) (human) (UniProt Q92793); assay: stopped-flow fluorimetry (displacement); complex TAZ1/Hif-1α CAD variant (0.75 µM/0.5 µM) mixed with excess TAZ1 W418Y (10-50 µM); kobs at excess equals apparent koff; 293 K; 20 mM HEPES pH 6.9, 1 mM TCEP, 190 mM NaCl
[2] = biological target: TAZ1 (transcriptional adaptor zinc-binding 1) domain of CREB binding protein (CBP) (human) (UniProt Q92793); assay: stopped-flow fluorimetry (association kinetics); TAZ1 constant at 0.5-0.9 µM, Hif-1α CAD variant varied 1-15 µM; Trp-418 fluorescence of TAZ1; 293 K; 20 mM HEPES pH 6.9, 1 mM TCEP, 190 mM NaCl; apparent kon from the fast phase; Kd = koff^app/kon^app with koff^app from the displacement experiments
[3] = biological target: TAZ1 (transcriptional adaptor zinc-binding 1) domain of CREB binding protein (CBP) (human) (UniProt Q92793); assay: ITC; 15 µM TAZ1 in the cell, 149 µM Hif-1α CAD (L813A) in the syringe; 293 K; 20 mM HEPES pH 6.9, 1 mM TCEP, 190 mM NaCl; one-to-one model

C-terminal activation domain of hypoxia inducible factor 1α (Hif-1α CAD), wild type, sequence (Q16665 776-826): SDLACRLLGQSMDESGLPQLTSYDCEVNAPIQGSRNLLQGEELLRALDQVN
Hif-1α CAD hydroxylated at Asn-803, sequence (Q16665 776-826): as above

Substance | koff [1] [s⁻¹] | Kd [2] [nM] | kon [2] [M⁻¹ s⁻¹] | Kd [3] [nM]
Hif-1α CAD L818A (from UniProt Q16665 776-826) (domain or fragment) | 1.27 | 205 | 6.23e+06 | 
Hif-1α CAD L813A (from UniProt Q16665 776-826) (domain or fragment) | 1.17 | 137 | 8.52e+06 | 144
Hif-1α CAD C800A (from UniProt Q16665 776-826) (domain or fragment) | 0.116 | 17.7 | 6.55e+06 | 
Hif-1α CAD T796S (from UniProt Q16665 776-826) (domain or fragment) | 0.0267 | 3.23 | 8.27e+06 | 
Hif-1α CAD L795A (from UniProt Q16665 776-826) (domain or fragment) | 6.74 | 1100 | 6.12e+06 | 
C-terminal activation domain of hypoxia inducible factor 1α (Hif-1α CAD), wild type (from UniProt Q16665 776-826) (domain or fragment) | 0.0297 | 3.36 | 8.83e+06 | 
Hif-1α CAD L783A (from UniProt Q16665 776-826) (domain or fragment) | 0.0346 | 3.6 | 9.62e+06 | 
Hif-1α CAD hydroxylated at Asn-803 (from UniProt Q16665 776-826) (domain or fragment) | 1.32 | 172 | 7.7e+06 | 
Hif-1α CAD L778A (from UniProt Q16665 776-826) (domain or fragment) | 0.0294 | 3.65 | 8.06e+06 | 
Hif-1α CAD L819A (from UniProt Q16665 776-826) (domain or fragment) | 0.141 | 23.1 | 6.1e+06 | 
Hif-1α CAD V802A (from UniProt Q16665 776-826) (domain or fragment) | 0.0995 | 13.7 | 7.28e+06 | 
Hif-1α CAD C780A (from UniProt Q16665 776-826) (domain or fragment) | 0.0361 | 3.78 | 9.56e+06 | 
Hif-1α CAD L792A (from UniProt Q16665 776-826) (domain or fragment) | 0.92 | 160 | 5.75e+06 | 
Hif-1α CAD I806V (from UniProt Q16665 776-826) (domain or fragment) | 0.0577 | 5.93 | 9.73e+06 | 
Hif-1α CAD M787A (from UniProt Q16665 776-826) (domain or fragment) | 0.0324 | 4.83 | 6.7e+06 | 
Hif-1α CAD L812A (from UniProt Q16665 776-826) (domain or fragment) | 0.509 | 71.5 | 7.12e+06 | 
Hif-1α CAD V825A (from UniProt Q16665 776-826) (domain or fragment) | 0.022 | 2.12 | 1.04e+07 | 
Hif-1α CAD L782A (from UniProt Q16665 776-826) (domain or fragment) | 0.0336 | 4.56 | 7.36e+06 | 

Source: article PMC5959852
